Experiments:
[1] = system: Aβ(1-42); assay: Thioflavin T (ThT) assay of Aβ(1-42) fibrilization; format: biochemical, human; conditions: for fibrilization of Aβ(1-42), ThT fluorescence: PBS, room temperature, value after 10 h, n = 5
Procedure: 7.5 µM Aβ(1-42) (stock solution of 190 µM in DMSO, freshly prepared before usage) were incubated with 10 µM ThT in PBS in absence or presence of different concentrations of scFv-IC16 (1.5, 3.75 and 7.5 µM) at room temperature for 24 h. In addition, scFv-IC16 (7.5 µM) without Aβ(1-42) was tested under the same conditions as the negative control. For all samples a reference value, generated with PBS and ThT only, was subtracted. […] The plate was covered by an adhesive film preventing evaporation of the sample buffer. Fluorescence recordings were performed every 30 min for 22 h (excitation wavelength 440 nm, emission wavelength 490 nm, Polarstar Optima, BMG, Ortenberg, Germany). The experiments were performed five-fold, and the average of the obtained values as well as the standard deviation was calculated.

[2] = system: Aβ(1-10); assay: ELISA binding to Aβ(1-10) peptides; conditions: 60 ng/well, 100% C-terminally biotinylated Aβ1-10; p = 0.19 versus N-bio oligomers
Procedure: An ELISA was applied to characterize the binding affinity of scFv-IC16 to different Aβ conformers. After concentration determination of the Aβ(1-42) monomer, oligomer and fibril preparations, each conformer was diluted in immobilization buffer (0.1 M NaHCO3, pH 9.3) to a concentration of 5 µg/ml, and coated on Nunc immobilizer streptavidin F96 clear plates (250 ng/well) (Nunc, Thermo Scientific, Waltham, MA, USA). Alternatively, Aβ monomers were prepared seedless in the same concentration by dissolving 50 µg N-terminally biotinylated Aβ(1-42) in 1 ml immobilization buffer and diluting it further to 5 µg/ml. N- or C-terminally biotinylated Aβ(1-10) peptides were dissolved in immobilization buffer to a final concentration of 1.2 µg/ml (60 ng/well). 50 µl of these Aβ solutions were incubated in the well for 1 h. Each well was washed with 100 µl immobilization buffer and the plate was stored at 4°C overnight in 100 µl immobilization buffer per well. Unspecific binding sites were blocked with 50 µl blocking buffer (PBS, 1% BSA) at room temperature for 1 h. […] The reaction was terminated by adding sulfuric acid to a final concentration of 1 M. The absorbance was recorded at 450 nm on Polarstar Optima plate reader (BMG, Ortenberg, Germany).

[3] = system: Aβ naturally secreted by 7PA2 cells; assay: Immunoprecipitation of cell culture derived Aβ; format: binding; conditions: scFv-IC16-NHS-Sepharose, Western blot with 4G8
Procedure: Purified scFv-IC16 was dialyzed against PBS and coupled to NHS-Sepharose (GE, Buckinghamshire, UK) according to the manufacturers recommendations. Conditioned medium (CM) was prepared from confluent wild type CHO cells or 7PA2 cells cultured in DMEM (Life Technologies, UK) in presence or absence of FCS. Aβ was immune-precipitated from cleared CM with scFv-IC16-NHS-Sepharose overnight at 4°C. After washing with PBS, captured proteins were separated by 10–20% tricine peptide PAGE (Biorad, Hercules, CA) and transferred onto a 0.2 µm nitrocellulose membrane at 400 mA for 2 h. The filter was boiled for 5 min in PBS [42] and blocked overnight at 4°C with 5% fat-free milk in PBS containing 0.05% Tween 20 (PBS-T). After washing in PBS-T, the membrane was probed with 1∶200 diluted monoclonal 4G8 (Signet, Dedhem, MA). Bound antibody was detected with horseradish peroxidase conjugated goat anti-mouse Ig (at 1∶25000) (Thermo Scientific, Bonn, Germany). Subsequently, the Amersham ECL Western Blotting Detection Reagent (GE, Buckinghamshire, UK) was applied for visualization.

For “scFv-IC16: single-chain variable fragment (VH-(Gly4Ser)3-VL, His6- and Myc-tag) derived from Aβ binding monoclonal antibody IC16, expressed in E. coli”, the “ThT fluorescence of scFv-IC16 only” value ([1]; 7.5 µM scFv-IC16 without Aβ(1-42), negative control, after 10 h) was “did not show ThT fluorescence”, the “fibrilization of Aβ(1-42), ThT fluorescence” value (shortened to “fibrilization”) ([1]; ratio 1:1: 7.5 µM Aβ(1-42) with 7.5 µM scFv-IC16, 10 µM ThT) was “completely inhibited” and the “fibrilization” value ([1]; ratio 2:1: 7.5 µM Aβ(1-42) with 3.75 µM scFv-IC16, 10 µM ThT) was “reduced the ThT fluorescence significantly”. The “fibrilization” value ([1]; ratio 5:1: 7.5 µM Aβ(1-42) with 1.5 µM scFv-IC16, 10 µM ThT) was “reduced the ThT fluorescence significantly”, the “ELISA binding to Aβ(1-10), C-terminal biotin tag” value [2] was “very similar to Aβ oligomers” and the “immunoprecipitation of monomeric Aβ” value ([3]; 7PA2 conditioned medium containing FCS, overnight 4°C) was “efficiently precipitated”. The “immunoprecipitation of lower oligomeric Aβ species” value ([3]; conditioned medium of 7PA2 cells cultured without FCS) was “efficiently precipitated”.
